Assay results as given in patent US20250313634A1 (WUXI BIOLOGICS SHANGHAI, published 2025).

What was measured:
Assay in all cases: capture ELISA on coated 1.14.4; relative to silent alanine substitutions
[1] = target: T1, hPD-L1_ECD.His point mutant E237A (human, UniProt Q9NZQ7 19-238)
T1 construct: extracellular domain
Method: (§1) After interacting with the supernatant that contains quantified PD-L1 mutant or human/mouse PD-L1_ECD.His protein (Sino Biological, China), HRP conjugated anti-His antibody (1:5000; Rockland Immunochemicals, Pottstown, PA) was added as detection antibody. Absorbance was normalized according to the average of control mutants. After setting an additional cutoff to the binding fold change (<0.55), the final determined epitope residues were identified.
(§2) The observed binding reductions most probably resulted from the instability or even collapse of hPD-L1 structure after alanine substitutions. After setting an additional cutoff to the binding fold change (<0.55), the final determined epitope residues were listed in Table 3.

[2] = target: T2, hPD-L1_ECD.His point mutant R86A (human, UniProt Q9NZQ7 19-238)
T2 construct: extracellular domain
Method: as §1, §2

[3] = target: T3, hPD-L1_ECD.His point mutant T179A (human, UniProt Q9NZQ7 19-238)
T3 construct: extracellular domain
Method: as §1, §2

[4] = target: T4, hPD-L1_ECD.His point mutant P24A (human, UniProt Q9NZQ7 19-238)
T4 construct: extracellular domain
Method: as §1, §2

[5] = target: T5, hPD-L1_ECD.His point mutant V174A (human, UniProt Q9NZQ7 19-238)
T5 construct: extracellular domain
Method: as §1, §2

[6] = target: T6, hPD-L1_ECD.His point mutant A52G (human, UniProt Q9NZQ7 19-238)
T6 construct: extracellular domain
Method: as §1, §2

[7] = target: T7, hPD-L1_ECD.His point mutant T201A (human, UniProt Q9NZQ7 19-238)
T7 construct: extracellular domain
Method: as §1, §2

[8] = target: T8, hPD-L1_ECD.His point mutant S93A (human, UniProt Q9NZQ7 19-238)
T8 construct: extracellular domain
Method: as §1, §2

[9] = target: T9, hPD-L1_ECD.His point mutant E31A (human, UniProt Q9NZQ7 19-238)
T9 construct: extracellular domain
Method: as §1, §2

[10] = target: T10, hPD-L1_ECD.His point mutant L48A (human, UniProt Q9NZQ7 19-238)
T10 construct: extracellular domain
Method: as §1, §2

[11] = target: T11, hPD-L1_ECD.His point mutant T127A (human, UniProt Q9NZQ7 19-238)
T11 construct: extracellular domain
Method: as §1, §2

[12] = target: T12, hPD-L1_ECD.His point mutant E218A (human, UniProt Q9NZQ7 19-238)
T12 construct: extracellular domain
Method: as §1, §2

[13] = target: T13, hPD-L1_ECD.His point mutant G119A (human, UniProt Q9NZQ7 19-238)
T13 construct: extracellular domain
Method: as §1, §2

[14] = target: T14, hPD-L1_ECD.His point mutant I206A (human, UniProt Q9NZQ7 19-238)
T14 construct: extracellular domain
Method: as §1, §2

[15] = target: T15, hPD-L1_ECD.His point mutant E39A (human, UniProt Q9NZQ7 19-238)
T15 construct: extracellular domain
Method: as §1, §2

[16] = target: T16, hPD-L1_ECD.His point mutant V29A (human, UniProt Q9NZQ7 19-238)
T16 construct: extracellular domain
Method: as §1, §2

[17] = target: T17, hPD-L1_ECD.His point mutant V68A (human, UniProt Q9NZQ7 19-238)
T17 construct: extracellular domain
Method: as §1, §2

[18] = target: T18, hPD-L1_ECD.His point mutant V225A (human, UniProt Q9NZQ7 19-238)
T18 construct: extracellular domain
Method: as §1, §2

[19] = target: T19, hPD-L1_ECD.His point mutant N131A (human, UniProt Q9NZQ7 19-238)
T19 construct: extracellular domain
Method: as §1, §2

[20] = target: T20, hPD-L1_ECD.His point mutant K62A (human, UniProt Q9NZQ7 19-238)
T20 construct: extracellular domain
Method: as §1, §2

[21] = target: T21, hPD-L1_ECD.His point mutant P161A (human, UniProt Q9NZQ7 19-238)
T21 construct: extracellular domain
Method: as §1, §2

[22] = target: T22, hPD-L1_ECD.His point mutant Q91A (human, UniProt Q9NZQ7 19-238)
T22 construct: extracellular domain
Method: as §1, §2

[23] = target: T23, hPD-L1_ECD.His point mutant I199A (human, UniProt Q9NZQ7 19-238)
T23 construct: extracellular domain
Method: as §1, §2

[24] = target: T24, hPD-L1_ECD.His point mutant Y123A (human, UniProt Q9NZQ7 19-238)
T24 construct: extracellular domain
Method: as §1, §2

[25] = target: T25, hPD-L1_ECD.His point mutant V147A (human, UniProt Q9NZQ7 19-238)
T25 construct: extracellular domain
Method: as §1, §2

[26] = target: T26, hPD-L1_ECD.His point mutant S117A (human, UniProt Q9NZQ7 19-238)
T26 construct: extracellular domain
Method: as §1, §2

T19 sequence (Q9NZQ7 19-238 N131A): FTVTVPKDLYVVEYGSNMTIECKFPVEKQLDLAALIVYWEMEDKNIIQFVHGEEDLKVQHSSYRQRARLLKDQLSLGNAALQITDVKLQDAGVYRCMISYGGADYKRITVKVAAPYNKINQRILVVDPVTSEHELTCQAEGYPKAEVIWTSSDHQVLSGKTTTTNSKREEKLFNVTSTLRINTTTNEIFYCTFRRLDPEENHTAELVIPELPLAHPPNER
T18 sequence (Q9NZQ7 19-238 V225A): as the sequence (Q9NZQ7 19-238 N131A) above, with A113N, V207A counted along it
T8 sequence (Q9NZQ7 19-238 S93A): as the sequence (Q9NZQ7 19-238 N131A) above, with S75A, A113N counted along it
T6 sequence (Q9NZQ7 19-238 A52G): as the sequence (Q9NZQ7 19-238 N131A) above, with A34G, A113N counted along it
T17 sequence (Q9NZQ7 19-238 V68A): as the sequence (Q9NZQ7 19-238 N131A) above, with V50A, A113N counted along it
T23 sequence (Q9NZQ7 19-238 I199A): as the sequence (Q9NZQ7 19-238 N131A) above, with A113N, I181A counted along it
T1 sequence (Q9NZQ7 19-238 E237A): as the sequence (Q9NZQ7 19-238 N131A) above, with A113N, E219A counted along it
T2 sequence (Q9NZQ7 19-238 R86A): as the sequence (Q9NZQ7 19-238 N131A) above, with R68A, A113N counted along it
T15 sequence (Q9NZQ7 19-238 E39A): as the sequence (Q9NZQ7 19-238 N131A) above, with E21A, A113N counted along it
T11 sequence (Q9NZQ7 19-238 T127A): as the sequence (Q9NZQ7 19-238 N131A) above, with T109A, A113N counted along it
T9 sequence (Q9NZQ7 19-238 E31A): as the sequence (Q9NZQ7 19-238 N131A) above, with E13A, A113N counted along it
T26 sequence (Q9NZQ7 19-238 S117A): as the sequence (Q9NZQ7 19-238 N131A) above, with S99A, A113N counted along it
T5 sequence (Q9NZQ7 19-238 V174A): as the sequence (Q9NZQ7 19-238 N131A) above, with A113N, V156A counted along it
T24 sequence (Q9NZQ7 19-238 Y123A): as the sequence (Q9NZQ7 19-238 N131A) above, with Y105A, A113N counted along it
T20 sequence (Q9NZQ7 19-238 K62A): as the sequence (Q9NZQ7 19-238 N131A) above, with K44A, A113N counted along it
T3 sequence (Q9NZQ7 19-238 T179A): as the sequence (Q9NZQ7 19-238 N131A) above, with A113N, T161A counted along it
T4 sequence (Q9NZQ7 19-238 P24A): as the sequence (Q9NZQ7 19-238 N131A) above, with P6A, A113N counted along it
T16 sequence (Q9NZQ7 19-238 V29A): as the sequence (Q9NZQ7 19-238 N131A) above, with V11A, A113N counted along it
T10 sequence (Q9NZQ7 19-238 L48A): as the sequence (Q9NZQ7 19-238 N131A) above, with L30A, A113N counted along it
T13 sequence (Q9NZQ7 19-238 G119A): as the sequence (Q9NZQ7 19-238 N131A) above, with G101A, A113N counted along it
T25 sequence (Q9NZQ7 19-238 V147A): as the sequence (Q9NZQ7 19-238 N131A) above, with A113N, V129A counted along it
T7 sequence (Q9NZQ7 19-238 T201A): as the sequence (Q9NZQ7 19-238 N131A) above, with A113N, T183A counted along it
T22 sequence (Q9NZQ7 19-238 Q91A): as the sequence (Q9NZQ7 19-238 N131A) above, with Q73A, A113N counted along it
T12 sequence (Q9NZQ7 19-238 E218A): as the sequence (Q9NZQ7 19-238 N131A) above, with A113N, E200A counted along it
T21 sequence (Q9NZQ7 19-238 P161A): as the sequence (Q9NZQ7 19-238 N131A) above, with A113N, P143A counted along it
T14 sequence (Q9NZQ7 19-238 I206A): as the sequence (Q9NZQ7 19-238 N131A) above, with A113N, I188A counted along it

B1: 1.14.4 (antibody, V domains shown)
VH: EVQLLESGGGLVQPGGSLRLSCAASGFTFSSYAMSWVRQAPGKGLEWVSGISGSGGFTYYADSVKGRFTISRDNSKNTLYLQMNSLRAEDTAVYYCAKPPRGYNYGPFDYWGQGTLVTVSS
VL: SYVLTQPPSVSVAPGQTARITCGGNNIGSKSVHWYQQKPGQAPVLVVYDDSDRPSGIPERFSGSNSGNTATLTISRVEAGDEADYYCQVWDSSSDHVVFGGGTKLTVL
notes: Fully human monoclonal antibody with a human constant region of IgG4 isotype
What does the source list for B1?
fold change [1]: 0.956 fold; fold change [2]: 1 fold; fold change [3]: 0.893 fold; fold change [4]: 0.907 fold; fold change [5]: 0.983 fold; fold change [6]: 0.622 fold; fold change [7]: 0.781 fold; fold change [8]: 1.15 fold; fold change [9]: 0.908 fold; fold change [10]: 0.77 fold; fold change [11]: 0.735 fold; fold change [12]: 0.732 fold; fold change [13]: 0.825 fold; fold change [14]: 0.876 fold; fold change [15]: 0.831 fold; fold change [16]: 0.882 fold; fold change [17]: 0.707 fold; fold change [18]: 0.749 fold; fold change [19]: 0.68 fold; fold change [20]: 0.169 fold; fold change [21]: 0.332 fold; fold change [22]: 0.906 fold; fold change [23]: 0.848 fold; fold change [24]: 1.11 fold; fold change [25]: 1.02 fold; fold change [26]: 0.935 fold
